Source: the supplement of paper PMC11780869

What follows are sequences tested on Bacillus subtilis (assay: cleaved RNA product abundance (RNA/gDNA barcode ratio) relative to median wild-type variant (ratio to wild type); higher = more accumulation of the downstream cleavage product). Conditions: experiment (reporter, strain, medium): exp 8a: truncated aprE reporter, strain BJT201 with 2% xylose (RNase J1 expressed); cleavage site: glnRA (positions -5 to +31 mutated).
Outline: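 Reporter mRNAs (truncated aprE or tetM) carrying barcoded, mutagenized RNase Y cleavage-site windows were made from oligos with a 9% error rate and integrated into the B. subtilis chromosome. Cultures grew in LB at 37°C from OD600 0.0003 to 0.3. Cleaved RNA was gel-selected, reverse transcribed and barcode-sequenced alongside genomic DNA barcodes, with UMI collapsing. Cleaved product abundance is the RNA:gDNA barcode ratio per variant, scaled to the median wild-type variant.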

Sequence | cleaved RNA product abundance
CGACATGTCCCGCTTCTTTCATTAATCCGTTAGCAACTGTTCTGCTATATACATTTACTTTTTAAGAGGAGGAAT | 0.495
CGACATGTCCCGCTTCTTTCATTAATCCGTTAGCAACTGTTCTGCTATATATATTTACCTTTTAAGAGGAGGAAT | 0.554
CGACATGTCCCGCTTCTTTCATTAATCCGTTAGCAACTGTTGTACTATATACATTTACCTTTTAAGAGGAGGAAT | 0.713
CGACATGTCCCGCTTCTTTCATTAATCCGTTAGCAACTGTTGTCCTATATACATTTACCTTTTAAGAGGAGGAAT | 0.343
CGACATGTCCCGCTTCTTTCATTAATCCGTTAGCAACTGTTGTGCAATATACATTTACCTTTTAAGAGGAGGAAT | 0.249
CGACATGTCCCGCTTCTTTCATTAATCCGTTAGCAACTGTTGTGCTAAATACATTTACCTTTTAAGAGGAGGAAT | 0.266
CGACATGTCCCGCTTCTTTCATTAATCCGTTAGCAACTGTTGTGCTATAAACATTTACCTTTTAAGAGGAGGAAT | 0.453
CGACATGTCCCGCTTCTTTCATTAATCCGTTAGCAACTGTTGTGCTATATACATTTACCTTTTAAGAGGAGGAAT | 0.516
CGACATGTCCCGCTTCTTTCATTAATCCGTTAGCAACTGTTGTGCTATATATATTTACCTTTTAAGAGGAGGAAT | 0.736
CGACATGTCCCGCTTCTTTCATTAATCCGTTAGCAACTGTTTAACTATATACATTTACCTTTTAAGAGGAGGAAT | 0.378
CGACATGTCCCGCTTCTTTCATTAATCCGTTAGCAACTGTTTAGATATATACATTTACCTTTTAAGAGGAGGAAT | 0.297
CGACATGTCCCGCTTCTTTCATTAATCCGTTAGCAACTGTTTAGCAATATACATTTACCTTTTAAGAGGAGGAAT | 0.455
CGACATGTCCCGCTTCTTTCATTAATCCGTTAGCAACTGTTTAGCCATATACATTTACCTTTTAAGAGGAGGAAT | 0.259
CGACATGTCCCGCTTCTTTCATTAATCCGTTAGCAACTGTTTAGCTAAATACATTTACCTTTTAAGAGGAGGAAT | 0.212
CGACATGTCCCGCTTCTTTCATTAATCCGTTAGCAACTGTTTAGCTATATAAATTTACCTTTTAAGAGGAGGAAT | 0.426
CGACATGTCCCGCTTCTTTCATTAATCCGTTAGCAACTGTTTAGCTATATACATATACCTTTTAAGAGGAGGAAT | 0.539
CGACATGTCCCGCTTCTTTCATTAATCCGTTAGCAACTGTTTAGCTATATACATTAACCTTTTAAGAGGAGGAAT | 0.618
CGACATGTCCCGCTTCTTTCATTAATCCGTTAGCAACTGTTTAGCTATATACATTTAACTTTTAAGAGGAGGAAT | 0.462
CGACATGTCCCGCTTCTTTCATTAATCCGTTAGCAACTGTTTAGCTATATACATTTACATTTTAAGAGGAGGAAT | 0.588
CGACATGTCCCGCTTCTTTCATTAATCCGTTAGCAACTGTTTAGCTATATACATTTACCTTTTAAGAGGAGGAAT | 0.537
CGACATGTCCCGCTTCTTTCATTAATCCGTTAGCAACTGTTTAGCTATATACATTTACTTTTTAAGAGGAGGAAT | 0.591

Sequence | cleaved RNA product abundance
CGACATGTCCCGCTTCTTTCATTAATCCGTTAGCAACTGTTTAGCTATATACATTTAGCTTTTAAGAGGAGGAAT | 0.608
CGACATGTCCCGCTTCTTTCATTAATCCGTTAGCAACTGTTTAGCTATATACATTTATCTTTTAAGAGGAGGAAT | 0.572
CGACATGTCCCGCTTCTTTCATTAATCCGTTAGCAACTGTTTAGCTATATACATTTGCCTTTTAAGAGGAGGAAT | 0.326
CGACATGTCCCGCTTCTTTCATTAATCCGTTAGCAACTGTTTAGCTATATATATTTACCTTTTAAGAGGAGGAAT | 0.416
CGACATGTCCCGCTTCTTTCATTAATCCGTTAGCAACTGTTTAGCTTTATACATTTACCTTTTAAGAGGAGGAAT | 0.192
CGACATGTCCCGCTTCTTTCATTAATCCGTTAGCAACTGTTTAGGTATATACATTTACCTTTTAAGAGGAGGAAT | 0.227
CGACATGTCCCGCTTCTTTCATTAATCCGTTAGCAACTGTTTAGTTATATACATTTACCTTTTAAGAGGAGGAAT | 0.327
CGACATGTCCCGCTTCTTTCATTAATCCGTTAGCAACTGTTTATCTATATACATTTACCTTTTAAGAGGAGGAAT | 0.501
CGACATGTCCCGCTTCTTTCATTAATCCGTTAGCAACTGTTTCACTATATACATTTACCTTTTAAGAGGAGGAAT | 0.694
CGACATGTCCCGCTTCTTTCATTAATCCGTTAGCAACTGTTTCGCTATACACATTTACCTTTTAAGAGGAGGAAT | 0.222
CGACATGTCCCGCTTCTTTCATTAATCCGTTAGCAACTGTTTCGCTATATACATGTACCTTTTAAGAGGAGGAAT | 0.361
CGACATGTCCCGCTTCTTTCATTAATCCGTTAGCAACTGTTTCGCTATATACATTTACCTTTTAAGAGGAGGAAT | 0.358
CGACATGTCCCGCTTCTTTCATTAATCCGTTAGCAACTGTTTCGCTTTATACATTTACCTTTTAAGAGGAGGAAT | 0.267
CGACATGTCCCGCTTCTTTCATTAATCCGTTAGCAACTGTTTCGTTATATACATTTACCTTTTAAGAGGAGGAAT | 0.222
CGACATGTCCCGCTTCTTTCATTAATCCGTTAGCAACTGTTTGACTATATACATTTACCTTTTAAGAGGAGGAAT | 0.605
CGACATGTCCCGCTTCTTTCATTAATCCGTTAGCAACTGTTTGCTATATACATTTACCTTTTAAGAGGAGGAATT | 1.42
CGACATGTCCCGCTTCTTTCATTAATCCGTTAGCAACTGTTTGGCAATATACATTTACCTTTTAAGAGGAGGAAT | 0.499
CGACATGTCCCGCTTCTTTCATTAATCCGTTAGCAACTGTTTGGCTATAAACATTTACCTTTTAAGAGGAGGAAT | 0.327
CGACATGTCCCGCTTCTTTCATTAATCCGTTAGCAACTGTTTGGCTATATAAATTTACCTTTTAAGAGGAGGAAT | 0.518
CGACATGTCCCGCTTCTTTCATTAATCCGTTAGCAACTGTTTGGCTATATACAATTACCTTTTAAGAGGAGGAAT | 0.279
CGACATGTCCCGCTTCTTTCATTAATCCGTTAGCAACTGTTTGGCTATATACATTTAACTTTTAAGAGGAGGAAT | 0.488

Sequence | cleaved RNA product abundance
CGACATGTCCCGCTTCTTTCATTAATCCGTTAGCAACTGTTTGGCTATATACATTTACATTTTAAGAGGAGGAAT | 0.339
CGACATGTCCCGCTTCTTTCATTAATCCGTTAGCAACTGTTTGGCTATATACATTTACCGTTTAAGAGGAGGAAT | 0.403
CGACATGTCCCGCTTCTTTCATTAATCCGTTAGCAACTGTTTGGCTATATACATTTACCTTTTAAGAGGAGGAAT | 0.493
CGACATGTCCCGCTTCTTTCATTAATCCGTTAGCAACTGTTTGGCTATATACATTTACGTTTTAAGAGGAGGAAT | 0.403
CGACATGTCCCGCTTCTTTCATTAATCCGTTAGCAACTGTTTGGCTATATATATTTACCTTTTAAGAGGAGGAAT | 0.546
CGACATGTCCCGCTTCTTTCATTAATCCGTTAGCAACTGTTTTAAAATATACATTTACCTTTTAAGAGGAGGAAT | 0.571
CGACATGTCCCGCTTCTTTCATTAATCCGTTAGCAACTGTTTTAATATATACATTTACCTTTTAAGAGGAGGAAT | 0.589
CGACATGTCCCGCTTCTTTCATTAATCCGTTAGCAACTGTTTTACAATATACATTTACCTTTTAAGAGGAGGAAT | 0.534
CGACATGTCCCGCTTCTTTCATTAATCCGTTAGCAACTGTTTTACGATATACATTTACCTTTTAAGAGGAGGAAT | 0.559
CGACATGTCCCGCTTCTTTCATTAATCCGTTAGCAACTGTTTTACTAAATACATTTACCTTTTAAGAGGAGGAAT | 0.499
CGACATGTCCCGCTTCTTTCATTAATCCGTTAGCAACTGTTTTACTATAAACATTTACCTTTTAAGAGGAGGAAT | 0.553
CGACATGTCCCGCTTCTTTCATTAATCCGTTAGCAACTGTTTTACTATATAAATTTACCTTTTAAGAGGAGGAAT | 0.596
CGACATGTCCCGCTTCTTTCATTAATCCGTTAGCAACTGTTTTACTATATACAATTACCTTTTAAGAGGAGGAAT | 0.613
CGACATGTCCCGCTTCTTTCATTAATCCGTTAGCAACTGTTTTACTATATACAATTACTTTTTAAGAGGAGGAAT | 0.712
CGACATGTCCCGCTTCTTTCATTAATCCGTTAGCAACTGTTTTACTATATACATATACCTTTTAAGAGGAGGAAT | 1.11
CGACATGTCCCGCTTCTTTCATTAATCCGTTAGCAACTGTTTTACTATATACATCTACCTTTTAAGAGGAGGAAT | 0.506
CGACATGTCCCGCTTCTTTCATTAATCCGTTAGCAACTGTTTTACTATATACATGTACCTTTTAAGAGGAGGAAT | 0.471
CGACATGTCCCGCTTCTTTCATTAATCCGTTAGCAACTGTTTTACTATATACATTCACCTTTTAAGAGGAGGAAT | 0.4
CGACATGTCCCGCTTCTTTCATTAATCCGTTAGCAACTGTTTTACTATATACATTTAACTTTTAAGAGGAGGAAT | 0.539
